Among the data in article PMC5114395 are NHEJ efficiency of blunt-ended DNA with Ku, DNA-PKcs, Artemis, X4·LIV and Pol μ, without or with 500 nM PAXX (Fig. 7B, lanes 12–15) values, retold here.

For the assay, the target named is Ku heterodimer (Ku70 and Ku80) (UniProt P12956).
Chain of UniProt P12956 (P12956 whole entry, chain 1 of 2): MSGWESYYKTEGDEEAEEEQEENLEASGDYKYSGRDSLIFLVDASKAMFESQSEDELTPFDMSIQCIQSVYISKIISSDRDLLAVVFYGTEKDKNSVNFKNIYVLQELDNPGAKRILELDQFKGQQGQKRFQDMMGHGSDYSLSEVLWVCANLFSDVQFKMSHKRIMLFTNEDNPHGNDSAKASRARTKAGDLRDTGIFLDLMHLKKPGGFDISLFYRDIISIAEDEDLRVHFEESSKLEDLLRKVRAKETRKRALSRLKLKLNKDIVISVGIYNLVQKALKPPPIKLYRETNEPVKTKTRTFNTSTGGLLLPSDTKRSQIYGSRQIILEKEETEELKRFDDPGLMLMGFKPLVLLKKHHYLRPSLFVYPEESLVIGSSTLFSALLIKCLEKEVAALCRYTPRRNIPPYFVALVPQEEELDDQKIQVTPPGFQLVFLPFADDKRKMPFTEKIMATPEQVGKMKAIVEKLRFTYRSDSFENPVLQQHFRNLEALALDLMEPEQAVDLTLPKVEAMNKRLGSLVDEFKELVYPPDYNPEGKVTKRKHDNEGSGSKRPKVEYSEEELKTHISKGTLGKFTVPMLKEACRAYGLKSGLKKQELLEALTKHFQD
Chain of UniProt P12956 (P13010 whole entry, chain 2 of 2, further chain): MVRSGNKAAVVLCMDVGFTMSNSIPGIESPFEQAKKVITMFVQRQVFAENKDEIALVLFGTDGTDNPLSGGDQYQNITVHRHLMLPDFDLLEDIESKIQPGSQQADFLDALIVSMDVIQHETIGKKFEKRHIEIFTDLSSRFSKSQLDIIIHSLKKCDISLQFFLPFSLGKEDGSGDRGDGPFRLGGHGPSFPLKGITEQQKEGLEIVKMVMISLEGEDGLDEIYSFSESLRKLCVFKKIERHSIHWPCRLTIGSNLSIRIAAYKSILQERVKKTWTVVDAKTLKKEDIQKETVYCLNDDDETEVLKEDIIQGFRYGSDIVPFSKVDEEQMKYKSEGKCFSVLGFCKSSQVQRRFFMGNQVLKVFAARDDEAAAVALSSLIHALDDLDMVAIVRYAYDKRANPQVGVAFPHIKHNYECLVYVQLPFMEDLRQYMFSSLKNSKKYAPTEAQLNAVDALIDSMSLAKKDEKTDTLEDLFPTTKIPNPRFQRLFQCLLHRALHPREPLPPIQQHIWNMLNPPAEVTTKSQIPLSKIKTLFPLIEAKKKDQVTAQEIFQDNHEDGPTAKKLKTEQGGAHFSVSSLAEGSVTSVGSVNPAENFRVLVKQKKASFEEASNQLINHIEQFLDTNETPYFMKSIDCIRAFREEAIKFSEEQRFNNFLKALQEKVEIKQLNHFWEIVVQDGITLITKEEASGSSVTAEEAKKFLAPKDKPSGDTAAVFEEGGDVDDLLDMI

Take “PAXX (paralog of XRCC4 and XLF) (from UniProt Q9BUH6 1-204) (natural protein)”: the NHEJ efficiency of blunt-ended DNA with Ku, DNA-PKcs, Artemis, X4·LIV and Pol μ, without or with 500 nM PAXX (Fig. 7B, lanes 12–15) stood at 2 fold.
